Molecular target: Gαi1 subunit (human, UniProt P63096)
Assay: cryo-EM structure

B1: hNTSR1(∆ICL3; residues 20-418, A85L, ∆282-291) (receptor)
chain: QRAQAGLEEALLAPGFGNASGNASERVLAAPSSELDVNTDIYSKVLVTAVYLALFVVGTVGNTVTLFTLARKKSLQSLQSTVHYHLGSLALSDLLTLLLAMPVELYNFIWVHHPWAFGDAGCRGYYFLRDACTYATALNVASLSVERYLAICHPFKAKTLMSRSRTKKFISAIWLASALLAVPMLFTMGEQNRSADGQHAGGLVCTPTIHTATVKVVIQVNTFMSFIFPMVVISVLNTIIANKLTVMVRQAAEQGQVCTVGGPGRVQALRHGVRVLRAVVIAFVVCWLPYHVRRLMFCYISDEQWTPFLYDFYHYFYMVTNALFYVSSTINPILYNLVSANFRHIFLATLACLCPVWRRRRKRPAFSRKADSVSSNHTLSSNATRETLY
- binding result: binds

Source: PMC7065593 (Nature, 2019)
